According to PMC11876737, “Side-by-Side Comparison of the In Vivo Performance of [^212Pb]Pb-DOTAMTATE and Other SSTR2-Targeting Compounds” (Journal of Nuclear Medicine, 2025):
Where two headings read alike, the source gives them in different places. Positions of bridges follow the written chain, without caps; N, C: chain ends. Non-standard residues stand in square brackets, D forms with d. Residues, ends and D or L forms follow the SMILES beside them. *: point of attachment. DO3AM = NC(=O)CN1CCN(CC(N)=O)CCN(CC(=O)*)CCN(CC(N)=O)CC1; dPhe(4-NHCONH2) = NC(=O)Nc1ccc(C[C@@H](N)C(=O)O)cc1; Dihydroorotyl(S) = O=C1C[C@@H](C(=O)*)NC(=O)N1; Phe(4-Cl) = N[C@@H](Cc1ccc(Cl)cc1)C(=O)O; Phe(4-NH2) = Nc1ccc(C[C@H](N)C(=O)O)cc1

What was measured:
[1] = Biodistribution of ^212Pb SSTR2 analogs in AR42J tumor-bearing mice; assay type: in vivo, athymic nude female mice; settings: female, athymic nude, mouse, in vivo, iv, total radioactivity
Experimental: (§1) The background was automatically subtracted from the counts. A standard was also used for decay correction to time of injection or time of collection. The percent injected dose per gram (%ID/g) was calculated for each organ collected.  FIGURE 2. In vivo distribution of ^212Pb-radiolabeled SSTR2 analogs in athymic nude female mice carrying subcutaneous AR42J tumors. […] Tissue uptake is expressed as %ID/g ± SD decay corrected to time of injection (n = 4-5). In our study, we propose to use the integral of the time-activity curve, also known as the AUC, as a surrogate measure for estimating the absorbed dose. We calculated all SSTR2 analogs' AUC for kidneys and tumors including tumor-to-kidney ratios (T/K AUC ratio) (Figs. 3 and 4). We observed distinct AUC patterns and consequently distinct T/K AUC ratios across the different compounds.

[2] = system: SSTR2-overexpressing tumors, AR42J; assay: as above; assay type: in vivo, athymic nude female mice
Experimental: as §1

[3] = ^212Pb chelate RCY after 24 h at room temperature (instant thin-layer chromatography); assay type: physicochemical; settings: 24 h at RT; 444 MBq/50 μg (27.5 nmol); triplicate ± SD
Experimental: The radioisotope-free compounds were diluted in metal-free water at needed concentrations and were stored at -20°C. ^212Pb was produced using ^224Ra generators (Orano Med LLC). Chelation was performed by incubating 27.5 nmol of peptide per 444 MBq of ^212Pb for 10 min at room temperature in 0.4 M ammonium acetate buffer, with a pH of 6.1. Radiochemical purity, assayed by instant thin-layer chromatography was used to confirm that ^212Pb chelation was greater than 95%. Radiolabeled peptides were spotted onto an instant thin-layer chromatography strip and allowed to migrate in a 22% citrate buffer. The instant thin-layer chromatography strip was then cut in half and counted using a calibrated Perkin Elmer Wizard2 2470 automatic γ-counter with an energy window of 185-250 keV considering ^212Pb major emitted γ-rays (238 keV). Samples were diluted to appropriate activity before injection in a buffer containing ascorbic acid, ethanol, and polysorbate-20. […], and PSC-PEG2-TATE (Fig. 1) were radiolabeled at a specific activity of 444 MBq per 50 μg (or 27.5 nmol) in a chelation buffer containing 5% ethanol, 20 mM ascorbic acid, and 0.02% polysorbate 80. The chelation of ^212Pb appears to occur more slowly with the PSC than with the DOTA and DOTAM chelators. […] The RCY remained above 95% at 24 h for all compounds.

somatostatin receptor 3 = system: somatostatin receptor 3; design: method as in PMID 10774879; settings: cited from earlier work
somatostatin receptor 5 = system: somatostatin receptor 5; design: method as in PMID 10774879; settings: cited from earlier work
SSTR2 = settings: cited from earlier work
[4] = time-activity curve of %ID/g at 1, 4, 24 h, decay corrected to time of collection

C[C@@H](O)[C@H](NC(=O)[C@@H]1CSSC[C@H](NC(=O)[C@@H](Cc2ccccc2)NC(=O)CN2CCN(CC(=O)O)CCN(CC(=O)O)CCN(CC(=O)O)CC2)C(=O)N[C@@H](Cc2ccc(O)cc2)C(=O)N[C@H](Cc2c[nH]c3ccccc23)C(=O)N[C@@H](CCCCN)C(=O)N[C@@H]([C@@H](C)O)C(=O)N1)C(=O)O [[^212Pb]Pb-DOTATATE, metal not drawn, reference compound]
tissue uptake at 4 h ([1]; 444 kBq, 4 h after injection, i.v., AR42J tumor, read-out: average tumor uptake): ~10 %ID/g
Tumor AUC / Kidney AUC ratio (T/K AUC ratio) ([2]; decay corrected to time of collection): 0.73
AR42J tumor AUC [2, 4]: 122 ± 12
Kidney AUC [2, 4]: 161 ± 21
biodistribution profile / accumulation in healthy tissues ([2]; tumor-bearing female mice): distinctly cleaner
RCY [3]: 98.3% ± 1.2%

C[C@@H](O)[C@@H]1NC(=O)[C@H](CCCCN)NC(=O)[C@@H](Cc2c[nH]c3ccccc23)NC(=O)[C@H](Cc2ccc(O)cc2)NC(=O)[C@@H](NC(=O)[C@@H](Cc2ccccc2)NC(=O)CCOCCOCCNC(=O)CN2CCN(CC(=O)O)CCN(CC(N)=O)CCN(CC(=O)O)CC2)CSSC[C@@H](C(=O)N[C@H](CO)[C@@H](C)O)NC1=O [^212Pb-PSC-PEG2-TOC, PSC-amino-PEG2-acid-D-Phe-cyclo(Cys-Tyr-D-Trp-Lys-Thr-Cys)Thr-OH, metal not drawn, reference compound]
AR42J tumor AUC ([2]; mouse, in vivo): 290 ± 45
Kidney AUC ([2]; mouse, in vivo): 320 ± 51

octreotide [TOC]
affinity for somatostatin receptor 3 (somatostatin receptor 3): high affinity
affinity for somatostatin receptor 5 (somatostatin receptor 5): high affinity
affinity for SSTR2 (SSTR2): high affinity

octreotate
affinity for somatostatin receptor 3 (somatostatin receptor 3): minimal binding
affinity for somatostatin receptor 5 (somatostatin receptor 5): moderate affinity
binding to SSTR2 relative to TOC (SSTR2): approximately 10 fold

C[C@@H](O)[C@@H]1NC(=O)[C@H](CCCCN)NC(=O)[C@@H](Cc2ccc(NC(N)=O)cc2)NC(=O)[C@H](Cc2ccc(NC(=O)[C@@H]3CC(=O)NC(=O)N3)cc2)NC(=O)[C@H](NC(=O)[C@H](Cc2ccc(Cl)cc2)NC(=O)CN2CCN(CC(N)=O)CCN(CC(N)=O)CCN(CC(N)=O)CC2)CSSC[C@@H](C(=O)N[C@H](Cc2ccc(O)cc2)C(N)=O)NC1=O [[^212Pb]Pb-DOTAM-JR11, DOTAM-p-Cl-Phe-cyclo(D-Cys-Aph(Hor)-D-Aph(Cbm)-Lys-Thr-Cys)D-Tyr-ONH2, metal not drawn] (DO3AM-[Phe(4-Cl)][dC][Phe(4-NH2)](Dihydroorotyl(S))[dPhe(4-NHCONH2)]KTC[dY]-NH2; disulfide 2-7)
AR42J tumor AUC ([2]; mouse, in vivo): 363 ± 75
Kidney AUC ([2]; mouse, in vivo): 274 ± 19
tumor retention ([2]; mouse, in vivo): favorable tumor retention
uptake in healthy tissues such as the stomach, the lungs, and spleen ([2]; mouse, in vivo): higher compared with uptake of the other SSTR2 analogs

C[C@@H](O)[C@H](NC(=O)[C@@H]1CSSC[C@H](NC(=O)[C@@H](Cc2ccccc2)NC(=O)CN2CCN(CC(N)=O)CCN(CC(N)=O)CCN(CC(N)=O)CC2)C(=O)N[C@@H](Cc2ccc(O)cc2)C(=O)N[C@H](Cc2c[nH]c3ccccc23)C(=O)N[C@@H](CCCCN)C(=O)N[C@@H]([C@@H](C)O)C(=O)N1)C(=O)O [[^212Pb]Pb-DOTAMTATE, metal not drawn]
tissue uptake at 4 h [1]: ~50 %ID/g
AR42J tumor AUC ([2]; mouse, in vivo): 583 ± 58
Kidney AUC ([2]; mouse, in vivo): 186 ± 28
uptake in healthy tissues such as the stomach, the lungs, and spleen ([2]; mouse, in vivo): higher compared with uptake of the other SSTR2 analogs

C[C@@H](O)[C@H](NC(=O)[C@@H]1CSSC[C@H](NC(=O)[C@@H](Cc2ccccc2)NC(=O)CN2CCN(CC(=O)O)CCN(CC(N)=O)CCN(CC(=O)O)CC2)C(=O)N[C@@H](Cc2ccc(O)cc2)C(=O)N[C@H](Cc2c[nH]c3ccccc23)C(=O)N[C@@H](CCCCN)C(=O)N[C@@H]([C@@H](C)O)C(=O)N1)C(=O)O [[^212Pb]Pb-PSC-TATE, PSC-D-Phe-cyclo(Cys-Tyr-D-Trp-Lys-Thr-Cys)Thr-COOH, metal not drawn]
AR42J tumor AUC ([2]; mouse, in vivo): 177 ± 22
Kidney AUC ([2]; mouse, in vivo): 156 ± 24

C[C@@H](O)[C@H](NC(=O)[C@@H]1CSSC[C@H](NC(=O)[C@@H](Cc2ccccc2)NC(=O)CCOCCOCCNC(=O)CN2CCN(CC(=O)O)CCN(CC(N)=O)CCN(CC(=O)O)CC2)C(=O)N[C@@H](Cc2ccc(O)cc2)C(=O)N[C@H](Cc2c[nH]c3ccccc23)C(=O)N[C@@H](CCCCN)C(=O)N[C@@H]([C@@H](C)O)C(=O)N1)C(=O)O [[^212Pb]Pb-PSC-PEG2-TATE, PSC-amino-PEG2-acid-D-Phe-cyclo(Cys-Tyr-D-Trp-Lys-Thr-Cys)Thr-COOH, metal not drawn]
AR42J tumor AUC ([2]; mouse, in vivo): 274 ± 59
Kidney AUC ([2]; mouse, in vivo): 290 ± 27

C[C@@H](O)[C@@H]1NC(=O)[C@H](CCCCN)NC(=O)[C@@H](Cc2c[nH]c3ccccc23)NC(=O)[C@H](Cc2ccc(O)cc2)NC(=O)[C@@H](NC(=O)[C@@H](Cc2ccccc2)NC(=O)CN2CCN(CC(=O)O)CCN(CC(N)=O)CCN(CC(=O)O)CC2)CSSC[C@@H](C(=O)N[C@H](CO)[C@@H](C)O)NC1=O [^212Pb-PSC-TOC, PSC-D-Phe-cyclo(Cys-Tyr-D-Trp-Lys-Thr-Cys)Thr-OH, metal not drawn]
AR42J tumor AUC ([2]; mouse, in vivo): 353 ± 52
Kidney AUC ([2]; mouse, in vivo): 377 ± 34
